Entries after “also recorded” stand apart in the source; their conditions may differ.
Key:
Format in all cases: cell-based
PTEC = test: Toxicity of pharmacologic agents in PTEC; conditions: exposure to the IC50 dose for 48-72 hr; data not shown
From the text: The inventors have also tested pharmacologic agents that disrupt NPM-Bax at specific steps in the cell death pathway (outlined in FIG. 11). These agents include geronylgeronylacetone (GGA), a potent Hsp70 inducer86, avrainvillamide, and NSC34888437. […] The inventors recently reported that GGA induces Hsp70 in murine PTEC and in the intact murine kidney. Hsp70 markedly reduces NPM-Bax complex formation during ischemic stress by 2 distinct mechanisms: a nucleolar-restricted Hsp70 mutant limits NPM translocation into the cytosol, whereas a cytosol restricted Hsp70 mutant sequesters […].

primary human PTECs = conditions: PTECs, ATP depletion; versus control peptide
Description: Exposure to metabolic inhibitors is an established model of ischemic stress that reduces ATP content to, 10% of baseline values until recovery is initiated.24,26 To achieve ATP depletion, cells were washed three times in glucose-free DMEM (Invitrogen, Carlsbad, CA) followed by incubation in glucose-free DMEM containing sodium cyanide (5 mM) and 2-deoxy-glucose (5 mM) for the indicated times.26
Recovery was initiated by replacing the stress medium described above with complete primary cell culture medium containing glucose and substrates that support the rapid restoration of cell ATP.27
For in vitro testing in primary human PTECs, peptides ([…]) were tested that replicate the Bax domain responsible for binding NPM,34 or two peptides designed to interfere with NPM function were compared with a random nonspecific sequence of the same length (control). Peptides intended to interfere with NPM function overlap key phosphorylation sites located at the NPM amino terminus (peptide 2) or carboxy terminus (peptide 3) detected by mass spectrometry. To improve cell uptake, all peptides contained a cell-penetrating sequence13. For in vivo experiments, a renal-targeting sequence (NLS) was added to enhance renal peptide uptake.35 Peptides were commercially synthesized (Biomatik, Wilmington, DE) J Am Soc Nephrol 30: ccc-ccc, 2018 Nucleophosmin in AKI 3www.jasn.org BASIC RESEARCHas follows: NPM-Bax blocking peptide: Ac-KKKRKV-(bA)-[…]-COOH (SEQ ID NO: 8); peptide 2: AC-PKKKRKV-(bA)-[…]-COOH (SEQ ID NO: 9); and peptide 3: AC-PKKKRKV-(bA)-ESFKK-QEKTPKTPKGPSSVED-IKAK-COOH (SEQ ID NO: 10). A single dose ([…] of the NPM-Bax blocking or control peptide) was administered by tail vein injection immediately after release of the pedicle clamps(0 timepoint) […] in each experimental group. A total of 42 control and 56 experimental animals were studied.
Transient exposure to metabolic inhibitors replicates ischemia in vivo by activating Bax and causing cell death.13,29,36-38 Cell viability was assayed using a modified colorimetric technique (MTTassay).37 The number of surviving cells is expressed as a percentage of viable control cells detected at baseline. Serum BUN and creatinine levels were measured in tail vein blood samples for 7 days after ischemia using QuantiChrom BUN or creatinine assay kits (BioAssay Systems, Hayward, CA) according to the manufacturer's instructions.

[1] = system: primary murine proximal tubule epithelial cells (PTECs); test: Functional bioassays of flag-tagged NPM phosphomimic proteins expressed in PTECs; conditions: for Postischemia cell survival: 60 minutes ATP depletion, FIG. 5E; for NPM localization in resting cells: absence of ischemic stress, FIG. 5A; for NPM-Bax complex formation: after ATP depletion, FIG. 5C; for NPM and active Bax accumulation in isolated mitochondria: after ischemic stress, FIG. 5D; for NPM oligomeric state: resting cells, native gel, FIG. 5B
From the text: The biologic behavior of nucleophosmin (NPM) phosphomimic proteins assessed using functional bioassays performed in primary murine proximal tubule epithelial cells (PTECs) that express flag-tagged wild type (WT), a normal (Nor-M or NrNPM) NPM mimic protein, or a stress (Stre-M, StNPM, or Stress-M) NPM mimic protein that replicates differential NPM phosphorylation. […] EV, empty sgOpti vector; RDU, relative density unit. *P, 0.05 for Nor-M and Stress-M NPM phosphomimics versus control (CTL).
Human NPM cDNA (catalog no. 34553; Addgene, Cambridge, MA) and pCDH lentivector systems (System Biosciences, Mountain View, CA) were used to generate NPM wild-type, “NPM stress mimic” (T86E-S88E-T95E-T234A-S242A), and “NPM normal mimic” (T86A-S88A-T95A-T234E-S242E) lentiviral expression plasmids by PCR-based mutagenesis with a flag tag fused to the 59 open reading frame. PCR products were cloned into pCDH vector BamHI/EcoRI sites. All constructs were confirmed by DNA sequencing before cotransfection with pPACKG1 lentivector packaging plasmids into HEK293NT cells to generate lentipseudoviral particles. The resultant pseudoviruses were harvested and purified, and titers were determined according to the manufacturer's instructions. Cells were exposed to virus (MOT 5-8) diluted in Opti-MEM (Invitrogen). After 6 hours incubation with virus-infected medium, a complete culture medium was substituted for an additional 16-hour incubation period.
To determine the biologic role of differential NPM phosphorylation at these five serine/threonine sites and the contribution to cytotoxicity, two flag-tagged NPM phosphomutant proteins as well as wild-type NPM were generated and introduced into human proximal tubule cells. These two mimic proteins replicated the phosphorylation state of NPM in either its normal or stressed configuration at the five differentially phosphorylated sites identified by mass spectrometry (FIG. 4). Specific bioassays were then used to assess the effect of these five post-translational phosphorylation changes on toxic NPM behaviors, including translocation, deoligomerization, NPM-Bax complex formation, mitochondrial NPM and Bax accumulation, and cell death.
Based on this phospho-proteomic data, 32 site-specific, amino terminal, flag-tagged NPM proteins with differential phosphorylation were generated (see FIG. 4B) and placed in a lentiviral vector ([…] phospho-mimic proteins; ref Wang, Havasi et al. 2011). Both the plasmid sequence and protein expression were confirmed. Serine or threonine residues in each of the NPM phospho-mimics was rendered either nonphosphorylatable (alanine substitution) or phospho-mimetic (glutamic acid substitution) at each of the 5 NPM residues identified by mass spec to be altered by ischemia. These NPM phospho-mimics represent all of the possible combinations of constitutively non-phosphorylated and phosphorylated variants at all of the 5 phosphosites ([…], see table, FIG. 4B). The flag epitope facilitates immunohistochemistry for detecting NPM distribution, NPM oligomerization and immunoprecipitation (IP) for detecting interaction between Bax and each NPM phospho-mimic. To establish a causal link between phosphorylation and NPM-function, a flag-tagged NPM mimic that replicated the NPM phospho-state in healthy PTEC and kidney tissue (#10, “normal NPM mimic”) or replicated NPM phosphorylation in post-ischemic cells and tissue (#11; “stress-NPM mimic”; FIG. 4B) was introduced into primary murine PTEC for further study. Dramatic differences in the biologic behavior of these 2 NPM phospho-mimics were detected. […] Using this phospho-data generate 2 new therapeutic peptides that target either T86, S88 and T95 or T232 and S240 were generated (FIG. 4A) and tested (FIG. 7). Screening the remaining NPM mimic proteins can identify the specific function of all 5 phospho-sites.

[2] = listed as normal NPM-phospho-mimic

Molecule	PTEC morphology and toxicity (PTEC)	Cell survival after ischemic stress (primary human PTECs)	Postischemia cell survival [1]	NPM-Bax complex formation [1]	NPM and active Bax accumulation in isolated mitochondria [1]	NPM oligomeric state [1]	other results
O=C(C[n+]1cccc2cc(Cl)ccc21)c1cccc([N+](=O)[O-])c1.[Br-] [NSC34888437]	does not alter PTEC morphology or cause significant toxicity	–	–	–	–	–	–
CC1(C)C=Cc2c(ccc3c2[N+]([O-])=C2C3=C[C@@]34NC(=O)[C@]5(CCCN5C3=O)C[C@H]4C2(C)C)O1 [avrainvillamide]	does not alter PTEC morphology or cause significant toxicity	–	–	–	–	–	–
AC-PKKKRKV-(bA)-ESFKK-QEKTPKTPKGPSSVED-IKAK-COOH (PKKKRKVAESFKKQEKTPKTPKGPSSVEDIKAK; N-acetyl, NLS PKKKRKV-betaAla N-terminal; MOD_RES (8)..(8) Beta-alanine) [peptide #3]	–	significantly improve cell survival	–	–	–	–	–
AC-PKKKRKV-(bA)-TLKMSVQPTVSLGGFEITPPVVLRLK-COOH (PKKKRKVATLKMSVQPTVSLGGFEITPPVVLRLK; N-acetyl, NLS PKKKRKV, beta-alanine linker; MOD_RES (8)..(8) Beta-alanine) [peptide #2]	–	significantly improve cell survival	–	–	–	–	–
normal mimic NPM: flag-tagged NPM phosphomutant T86A-S88A-T95A-T234E-S242E expressed by lentivirus (protein, left off: small tags and cut ends, flag-tagged NPM phosphomutant T86A-S88A-T95A-T234E-S242E expressed by lentivirus) MEDSMDMDMSPLRPQNYLFGCELKADKDYHFKVDNDENEHQLSLRTVSLGAGAKDELHIVEAEAMNYEGSPIKVTLATLKMSVQPAVALGGFEIAPPVVLRLKCGSGPVHISGQHLVAVEEDAESEDEEEEDVKLLSISGKRSAPGGGSKVPQKKVKLAADEDDDDDDEEDDDEDDDDDDFDDEEAEEKAPVKKSIRDTPAKNAQKSNQNGKDSKPSSTPRSKGQESFKKQEKEPKTPKGPESVEDIKAKMQASIEKGGSLPKVEAKFINYVKNCFRMTDQEAIQDLWQWRKSL	–	–	significantly reduced cell death; also recorded: improved PTEC survival	decreased NPM-Bax complex formation	decreased	formed large oligomers	NPM localization in resting cells ([1]; listed as normal NPM phosphomimic): accumulated in a nucleolar pattern; NPM localization in resting cells [1, 2]: exclusively localized to nucleoli; NPM-Bax complex formation [1, 2]: minimally complexed with Bax; NPM and active Bax accumulation in isolated mitochondria [1, 2]: did not accumulate in isolated mitochondria; NPM oligomeric state [1, 2]: remained in the oligomerized state
stress mimic NPM: flag-tagged NPM phosphomutant T86E-S88E-T95E-T234A-S242A expressed by lentivirus (protein, left off: small tags and cut ends, flag-tagged NPM phosphomutant T86E-S88E-T95E-T234A-S242A expressed by lentivirus) MEDSMDMDMSPLRPQNYLFGCELKADKDYHFKVDNDENEHQLSLRTVSLGAGAKDELHIVEAEAMNYEGSPIKVTLATLKMSVQPEVELGGFEIEPPVVLRLKCGSGPVHISGQHLVAVEEDAESEDEEEEDVKLLSISGKRSAPGGGSKVPQKKVKLAADEDDDDDDEEDDDEDDDDDDFDDEEAEEKAPVKKSIRDTPAKNAQKSNQNGKDSKPSSTPRSKGQESFKKQEKAPKTPKGPASVEDIKAKMQASIEKGGSLPKVEAKFINYVKNCFRMTDQEAIQDLWQWRKSL	–	–	significantly lower	substantially greater	exceeded that observed with wild-type or normal mimic NPM	accumulated as small monomers	Postischemia cell survival ([1]; listed as stress NPM mimic): significantly decreased PTEC survival; NPM localization in resting cells ([1]; listed as NPM stress mimic protein): localized to the cytosol; NPM localization in resting cells ([1]; listed as stress NPM mimic): exclusively localized to the cytosol; NPM-Bax complex formation ([1]; listed as stress NPM mimic): markedly increased NPM-Bax complex formation; NPM and active Bax accumulation in isolated mitochondria ([1]; listed as stress NPM mimic): dramatically increased NPM accumulation in isolated mitochondria; NPM oligomeric state ([1]; listed as stress NPM mimic): caused marked NPM de-oligomerization

— US12018058B2, “Compositions and methods for diagnosing and/or treating kidney injury” (Boston Medical Center Corporation, priority 2018, dated 2024)
